Key:
[1] = target: SARS-CoV-2 spike receptor-binding domain (RBD, amino acids 322 to 536), histidine-tagged (Example 2) (SARS-CoV-2, UniProt P0DTC2 322-536)
[2] = target: SARS-CoV1 recombinant S protein RBD region, 9x His tag (Example 1) (SARS-CoV1, UniProt P59594 306-527); test: ELISA on RBD-coated plate (FIG. 3)
[3] = target: MERS-CoV recombinant S protein RBD region, 9x His tag (Example 1) (MERS-CoV, UniProt K9N5Q8 367-606); test: ELISA on RBD-coated plate (FIG. 3)
[4] = target: T1, SARS-CoV2 S protein on VSV pseudovirus (SARS-CoV-2, UniProt P0DTC2 14-1273); test: cell-based or functional assay
Authentic CoV2 [5] = target: T2, Authentic CoV2 (SARS-CoV-2 JPN/TY/WK-521); test: cell-based or functional assay
[6] = target: T1, SARS-CoV2 S protein on VSV pseudovirus; test: cell-based or functional assay; remark: listed apart in the source
Authentic CoV2 [7] = target: T2, Authentic CoV2; test: cell-based or functional assay; remark: listed apart in the source
[8] = target: T3, SARS-CoV1 spike protein on VSV pseudovirus (SARS-CoV-1, UniProt P59594 14-1255); test: cell-based or functional assay
[9] = target: T3, SARS-CoV1 spike protein on VSV …; test: cell-based or functional assay; remark: listed apart in the source

Binder	IC50, pseudovirus neutralization [NT-108] [6] [µg/mL]	IC50, authentic virus neutralization [NT-108] (Authentic CoV2 [7]) [µg/mL]	IC50, pseudovirus neutralization [NT-193] [6] [µg/mL]	IC50, authentic virus neutralization [NT-193] (Authentic CoV2 [7]) [µg/mL]	further results
NT-108 (recombinant human IgG1/kappa antibody) (antibody, V domains shown) VH: EVQLQQSGPGLVKPSQTLSLTCSISGDSVSSNSAAWNWIRQSPSRGLEWLGRTYYRSKWYNDYAGTVKSRIAINPDTSKNQFSLHLNSVTPEDTAVYFCARVISVAGYAFDIWGQGTMVTVSS VL: EIVLTQSPGTLSLSPGERATLSCRASQSVSSTFLAWYQQKPGQAPRLLIYGASYMATGIPDRFSGSGSGTDFTLTISRLEPEDFAVYYCQQYGSSLTFGGGTKLEIK	0.0057	0.116	–	–	EC50 [1]: 0.455 µg/mL; binding result [2]: no binding; binding result [3]: no binding; IC50, pseudovirus neutralization [4]: 0.0061 µg/mL; IC50, authentic virus neutralization (Authentic CoV2 [5]): 0.0403 µg/mL
NT-108, human IgG4 subclass (antibody, V domains shown) VH: EVQLQQSGPGLVKPSQTLSLTCSISGDSVSSNSAAWNWIRQSPSRGLEWLGRTYYRSKWYNDYAGTVKSRIAINPDTSKNQFSLHLNSVTPEDTAVYFCARVISVAGYAFDIWGQGTMVTVSS VL: EIVLTQSPGTLSLSPGERATLSCRASQSVSSTFLAWYQQKPGQAPRLLIYGASYMATGIPDRFSGSGSGTDFTLTISRLEPEDFAVYYCQQYGSSLTFGGGTKLEIK	0.0031	0.116	–	–	–
NT-108, human IgG2 subclass (antibody, V domains shown) VH: EVQLQQSGPGLVKPSQTLSLTCSISGDSVSSNSAAWNWIRQSPSRGLEWLGRTYYRSKWYNDYAGTVKSRIAINPDTSKNQFSLHLNSVTPEDTAVYFCARVISVAGYAFDIWGQGTMVTVSS VL: EIVLTQSPGTLSLSPGERATLSCRASQSVSSTFLAWYQQKPGQAPRLLIYGASYMATGIPDRFSGSGSGTDFTLTISRLEPEDFAVYYCQQYGSSLTFGGGTKLEIK	0.002	0.101	–	–	–
NT-108, human IgG3 subclass (antibody, V domains shown) VH: EVQLQQSGPGLVKPSQTLSLTCSISGDSVSSNSAAWNWIRQSPSRGLEWLGRTYYRSKWYNDYAGTVKSRIAINPDTSKNQFSLHLNSVTPEDTAVYFCARVISVAGYAFDIWGQGTMVTVSS VL: EIVLTQSPGTLSLSPGERATLSCRASQSVSSTFLAWYQQKPGQAPRLLIYGASYMATGIPDRFSGSGSGTDFTLTISRLEPEDFAVYYCQQYGSSLTFGGGTKLEIK	0.001	0.049	–	–	–
NT-193 (recombinant human IgG1/kappa antibody) (antibody, V domains shown) VH: EVQLQQWGAGLLKPSETLSLTCAVYGGSFSGYYWSWIRQPPGKGLEWIGEINHSGSTNYNPSLKSRVTISVDTSKNQFSLKLSSVTAADTAVYYCARGWDLDYYYGMDVWGQGTTVTVSS VL: DIRMTQSPSAMSASVGDRVTVTCRASQGIGNYLAWFQLKPGKVPKRLIYAASSLQSGVPARFSGGGSGTEFTLTISSLQPEDFATYYCLQHGFLPWTFGQGTKLEIK	–	–	0.0111	0.241	IC50 of the neutralizing activity against SARS-CoV (pseudovirus) [8]: 0.013 µg/mL; IC50, pseudovirus neutralization [4]: 0.0209 µg/mL; IC50, authentic virus neutralization (Authentic CoV2 [5]): 0.0851 µg/mL; IC50, pseudovirus neutralization [9]: 0.0061 µg/mL
NT-193, human IgG4 subclass (antibody, V domains shown) VH: EVQLQQWGAGLLKPSETLSLTCAVYGGSFSGYYWSWIRQPPGKGLEWIGEINHSGSTNYNPSLKSRVTISVDTSKNQFSLKLSSVTAADTAVYYCARGWDLDYYYGMDVWGQGTTVTVSS VL: DIRMTQSPSAMSASVGDRVTVTCRASQGIGNYLAWFQLKPGKVPKRLIYAASSLQSGVPARFSGGGSGTEFTLTISSLQPEDFATYYCLQHGFLPWTFGQGTKLEIK	–	–	0.0044	0.247	–
NT-193, human IgG2 subclass (antibody, V domains shown) VH: EVQLQQWGAGLLKPSETLSLTCAVYGGSFSGYYWSWIRQPPGKGLEWIGEINHSGSTNYNPSLKSRVTISVDTSKNQFSLKLSSVTAADTAVYYCARGWDLDYYYGMDVWGQGTTVTVSS VL: DIRMTQSPSAMSASVGDRVTVTCRASQGIGNYLAWFQLKPGKVPKRLIYAASSLQSGVPARFSGGGSGTEFTLTISSLQPEDFATYYCLQHGFLPWTFGQGTKLEIK	–	–	0.0065	0.212	–
NT-193, human IgG3 subclass (antibody, V domains shown) VH: EVQLQQWGAGLLKPSETLSLTCAVYGGSFSGYYWSWIRQPPGKGLEWIGEINHSGSTNYNPSLKSRVTISVDTSKNQFSLKLSSVTAADTAVYYCARGWDLDYYYGMDVWGQGTTVTVSS VL: DIRMTQSPSAMSASVGDRVTVTCRASQGIGNYLAWFQLKPGKVPKRLIYAASSLQSGVPARFSGGGSGTEFTLTISSLQPEDFATYYCLQHGFLPWTFGQGTKLEIK	–	–	0.001	0.127	–

— patent US20240287161A1 (NATIONAL UNIVERSITY CORPORATION TOTTORI UNIVERSITY, published 2024)
